PMC3669356

Legend:
[1] = molecular target: Schistosoma japonicum GST (GST-Sj), purified recombinant (Schistosoma japonicum) [GST: P08515]; experiment: SPR
[2] = molecular target: rat GSTM1, purified recombinant (rat); experiment: SPR; BIAcore; GSTM1 or GSTP1 immobilised by amine coupling on CM5 chips; AMPK 221WT injected (10 nM, or a concentration series) at 30 µl/min; 10 mM HEPES pH 7.4, 100 mM NaCl, 50 μM EDTA, 0.005% Surfactant P20; Langmuir 1:1 fit

Substance	equilibrium response [1] [RU]	Kd [2] [nM]	koff [2] [s⁻¹]	kon [2] [M⁻¹ s⁻¹]
AMPK α2T172Dβ2γ1 mutant (221TD) (from UniProt Q09137 1-552; Q9QZH4 1-271; P80385 1-330) (complex)	121	–	–	–
AMPK α2β2γ1 (221WT) (from UniProt Q09137 1-552; Q9QZH4 1-271; P80385 1-330) (complex)	203	5	0.0016	310000
